Experiment: soluble on expression in E. coli; label from the status in PepcDB or PDB records

Row | Sequence | soluble on expression in E. coli
1 | MGIKGDKKATSDQARLARLTLEGNSGNEEDIQFMIKTIIETTGCTQAQAEIALLDTDNNLYGAIDHILDAGDKLDSWTEQKGAKKEKKKPEEGSYNNRGFVARGRGGGTGFVDRGGRGRSNGAPRESRDNNRDNRDNKEGAAPRSTRGGFEKPYVGRGGRGGARGGYSRAVAPSSALEPDAFTADLDENQTKVDTTVTEVQPPVEESVTATVPTSSAPAPISFAAVAAAAHRKEALRKHQAQNPQPAAPPRRSLSPQPPLPSVAPVKEEPAAAPVFFEPETSHQPEKEDGFFQNESSVLAEEQTPNVSTHHDENVQSTPEPNQAWTTQLKTDLGIGLSEAPGLGLSPIPSAAPVQIIPDPGVEFVGTTAPTNIHDYSFGFVEAAPSPQLPSTESSAASISNASENIFNSSRIMPKQVEPERTSIPNGDYNLKSTSPPLSYGQSNRGLSYDTSSASYQPTDRMAPNKFNNSGPLPTQQSAQQHQPQQQQQQAPQQPVQQQQQTPPAQSQPTGHPQQHPHMMFTQQLPYAPYMNNYMNMYNPMPGVRDEQYTAALMQYGMGVDLTSLLPTAPLSQAASAQQVQSGQQRETHGLMDFNKFGSQSSRDQQPQQASNVGPPPGFQATNYMQQPNLSSLFMQQYSPAPHQFTPFMNMMPNVGSSAGGRQLYGQDDERKSYDKMSGSKPAAQQNQHSQYQHNGGNLGKYGMNKPYNWSN | not soluble
2 | MGIMPRKVLAIKNFKERFDLLPKLKGVIAEKQPDILVVVGNILKNEALEKEYERAHLARREPNRKVIHENEHYIIETLDKFFREIGELGVKTFVVPGKNDAPLKIFLRAAYEAETAYPNIRVLHEGFAGWRGEFEVIGFGGLLTEHEFEEDFVLKYPRWYVEYILKFVNELKPRRLVTIFYTPPIGEFVDRTPEDPKHHGSAVVNTIIKSLNPEVAIVGHVGKGHELVGNTIVVNPGEFEEGRYAFLDLTQHKIKLEQFS | soluble
3 | MGKALPFYLSPYPVDFWTNASFSDEEHEDAALSNSHLGRNAMVPPQGRSGPASWILRSVRDPGFAPCPPWSWIYHQFRIAWLRCVVRMDGRAPQVQTGQSTSPAKAASNATALQDQA | not soluble
4 | MGKEIQLKPKANVSSYVHFLLNYRNKFKEQQPSTYVGFKEFSRKCSEKWRSISKHEKAKYEALAKLDKARYQEEMMNYVGKRKKRRKRDPQAPRRPPSSFLLFCQDHYAQLKRENPNWSVVQVAKATGKMWSTATDLEKHPYEQRVALLRAKYFEELELYRKQCNARKKYRMSARNRCRGKRVRQS | not soluble
5 | MGKLALAAKITHVPSMYLSELPGKNHGCRQGAIDGHKEISKRCREMGVDTIIVFDTHWLVNSAYHINCADHFEGVYTSNELPHFIRDMTYNYEGNPELGQLIAEEALKLGVRAKAHNIPSLKLEYGTLVPMRYMNEDKHFKVVSISAFCTVHDFADSRKLGEAILKAIEQYDGTVAVLASGSLSHRFIDDQRAEEGMNSYTREFDRQMDERVVKLWREGQFKEFCNMLPEYADYCYGEGNMHDTVMLLGMLGWDKYDGKVEFITELFPSSGTGQVNAVFPLPA | not soluble
6 | MGKRLLDKLWERHVVTTNENGLDLLYIDLHLVHEVTSPQAFEGLRLTNRTVRRPDLTFATMDHNIPTKDVWNITDRIAKQQLDTLRENCKQFQVPLADIGDEEQGIVHVIGPELGLTQPGKTIVCGDSHTATHGAFGALAFGIGTSEVEHVLATQTLWQRKPKAMGIELKGKLQKGVYAKDIILHLLSKYGVAVGTGYVMEFYGETIGTMEMEERMTLCNMAIEGGAKAGIIAPDEKTFAYVKGRKYAPRDYETFEKKWFELYTDADAIYDLHISIDVTDLAPYVTWGTNPSMGVRIDEKLPEKHDVNDERAFSYMGLIPGQSTYDIPVQHVFIGSCTNSRLSDLEIAASVVKGRKVKEGVRALVVPGSKRVRDAAMQKGLHHIFEEAGFEWREPGCSMCLGMNPDQVPEGEHCASTSNRNFEGRQGKGARTHLVSPAMAAAAALYGHFVDIRKESYDGAISYS | not soluble
7 | MGLKAINTSLSKNDLAHLGAGEVGYIRKMRSEEVSRCFPEAPEMGPGIDLWALFGADGTPILLTDNRSSTFFKAAEDDLRTVSLH | not soluble
8 | MGLLDLIGRKRARDKPQNSYEGQDFSYLFGRTTSGENVDEFKTMQTTAVYACVRVLAEAVASLPIHIYERTENGKEKKLDHPLYFLLHDEPNPEMSSFIFRETIMSHLLIWGNAYVQIIRDKSGMVSLLLKQKASVLIRKLLLIIWQRMP | not soluble
9 | MGLPKSAYKKLLIDCPTRVINKNCAQRVKDVSPLITNFEKWSDKRKKLYFKDEEEMVGQFHLENFNLKNNLYGRLLASPMRAEKISKLKSCRELLIPLKVVPSTGKDQHADKDKLKLVPTLDYSKSYKSSYVLNSASIVQDNLAAATSWFPISVLQTSTPKSLEVDSSTFITEYNANLHAFIKARLSVIPNVGPSSINRVLLICDKRKTPPIEIQVVSHGKGLPITQSVFNLGYLHEPTLEAIVSKDAVTNGIYLDADNDKDLIKHLYSTLLFHSVN | not soluble
10 | MGLQTYNAKRSFDKTPEPKGTKAEKPGSSFVIQKHDARRLHYDFRLEMDGVLKSWAVTRGPSLDPEDKRLAVHVEDHPLSYGDFEGVIPKGQYGGGTVIVWDRGIWQPIGDAGKGYRKGHLEFELEGEKLKGRWHLVRMHGKPGESRENWLLIKGDDEEARHLEHHHHHH | soluble
11 | MGLVIYDTLARRKVPFEPAVPGHVGIYVCGPTVYADPHLGHARGPVVYDVLRRYLLHKGYKVRFVSNITDVGHLTDDADEGEDKIVRRAKLERLEPMEVAEKYTWSYFDAMQALNVLRPSIAPRASGHIPEMLELTERLLARGVAYERKGSVYFRVRSFPEYGKLSGKRLEELRAGARVEVREEKEDPLDFALWKAAEPGHIMRWKSPWGEGYPGWHIECTAMSLKYLGEGFDLHAGGIDLQFPHHECEIAQAEAAGFRFARHWMHHNHVLLEGEKMAKSTGNLVLLHDLLEAHEPMALRFYLLQTHYRSPMDFTWEGLESAKRGYGRLLHAYREVRGRKKTAPPGTTPELERALDALEKAFMEAIEDDLSTPEALAALFAFLPELHKLLPEAKAESLARAEAVFHTLGEGILGLFPERVLEERVSGPLLEGLIALLLELREEARRAKDYEKSDLIRERLRALGVIVEDTKEGPRWRLER | soluble
12 | MGLWFEEGAEERQVLGPFREFLKAEVAPGAAERDRTGAFPWDLVRKLAEFGVFGALVPEAYGGAGLSTRLFARMVEAIAYYDGALALTVASHNSLATGHILLAGSEAQKEAFLPKLASGEALGAWGLTEPGSGSDAAALKTKAEKVEGGWRLNGTKQFITQGSVAGVYVVMARTDPPPSPERKHQGISAFAFFRPERGLKVGRKEEKLGLTASDTAQLILEDLFVPEEALLGERGKGFYDVLRVLDGGRIGIAAMAVGLGQAALDYALAYAKGREAFGRPIAEFEGVSFKLAEAATELEAARLLYLKAAELKDAGRPFTLEAAQAKLFASEAAVKACDEAIQILGGYGYVKDYPVERYWRDARLTRIGEGTSEILKLVIARRLLEAV | soluble
13 | MGLYLKGPSYKQVARILGMSHYRMKMLAMKKREVDDTVTKINGERRYLWAAIDVESREILAILEHHHHHH | not soluble
14 | MGMDQSRLMSGAAGGALVLMGLKKRGVLGLLMTVGGGYLAYKAATGKDPVMEAAGLTGSAGAAKPIFVEHSIVIDRPAQQVYDYWRKLENLPQIMSHLESVTVLDDKRSRWVAKAPLGTHVEWEAEVVNDKPGERIGWHSLPGATVDNAGSVQFESLPDDKTRVHVALSYRPPAGPLGAAVAKLFGEEPSQQIAEDLQKFKATFEGLEHHHHHH | soluble
15 | MGMIVFVRFNSSYGFPVEVDSDTSILQLKEVVAKRQGVPADQLRVIFAGKELPNHLTVQNCDLEQQSIVHIVQRPRRR | soluble
16 | MGMKFLNKKGWHTGSLRNIETVWKAEQKQEAEQKKLEELRLQILQERERSEFRALQEQAGLIPRQERLEFLYDSGLAVGKGSASGSGVSFQKEEQPLAKSEAGSSASEKPDQSAPGALFEEKAQSANDSWRKLHSDPLLLIRQREQEALAKIKNNPVKMALIRKSVEEKGKGKDGDTKEHKKKHKRKSGKHQKQSSSRQRSDSEEDSGEENNGRKSHHQKTSGTHDRHYERPRSDLEDESKGRESRDRHYEKRRSELDDGHKRRERHDTHYERRRSEMDDESKRRESRDNHYERRRSDLDDESKRRESHDKHFERQRSDLDDEYKRRESQDKRRRSDIDDEPKRRDARPNEKYRNRSPKGGVERENLKSYGQEDKKRKAEDLDSGKPNEYQNRRRKGGSKLSEEERAARLKQMQMDAEVHEEQRWTRLKKADETDAVEADKNKVSTGKSFLDDANKSVYGVEKGGSSTIEESVRRRSYYSQRGTAAEGNAFRR | not soluble
17 | MGNLFCCVLVKQSDVAVKERFGKFQKVLNPGLQFVPWVIGDYVAGTLTLRLQQLDVQCETKTKDNVFVTVVASIQYRVLADKASDAFYRLSNPTTQIKAYVFDVIRACVPKLNLDDVFEQKNEIAKSVEEELDKAMTAYGYEILQTLIIDIEPDQQVKRAMNEINAAARMRVAASEKAEAEKIIQIKRAEGEAESKYLSGLGIARQRQAIVDGLRDSVLGFAGNVPGTSAKDVLDMVMMTQYFDTMRDIGATSKSSAVFIPHGPGAVSDVAAQIRNGLLQANNAS | soluble
18 | MGNQAGSKTKLVIIQGPTASGKSELAVRLAEACGGDVVNADSMQVYRGMDIGTAKPSPELVARVPHHLYDIVDPDVNFTAADYRREAGRVITEIHSRGKRPILVGGTGLYIKTLIGGLAPSPGADDTIRAELEEDARSEGAAALHDRLAQVDPAAAARLHPNDRVRIVRALEVFLMTGKPLSEFQEEHRFADEPYDCLKLGISVERDDLYRRINERVNRMFAEGFVEEVSGLLNAGYSPDLKAMGAIGYKEVCAYLAGTCSLDEARELVQRNTRRYAKRQLTWFRKDPAIKWVEYPANFDSISTIAMKFFGLEHHHHHH | not soluble
19 | MGNRLSKIYTRTGDRGETGLAGGRRVPKSHPRIEAIGAVDELNSQLGLLLAELLEARGAHPGLEEIVQALAPVQHRLFDLGGELAMPEYRALDETEVARLESCIDRWNDELGPLKNFILPGGSRPVAQAHVCRSLARSAERRCQALDQEETLEGVGLRYLNRLSDLLFVAARAIARRQGVAEILWEAAAKPD | not soluble
20 | MGNTSSERSGGEKTHRRESRSGKDGTRPKILMDSAEDGDLFQSDDAKEFLAWRQDQESDSKTPLEERPTVFRWKGPGKEIYLSGSFNNWATKIPLNKSHNNFVAIIDLPEGEHQYKFYVDGHWTLDPKEPVVTNKSGVVNNVIKVRKTDFEVFDALKTDSEKCADMSDLSSSPPGPYHQDPYSTKSEDKLRSPPILPPHLLQVLLNKDTGISCDPTLLPEPNHVMLNHLYALSIKDGVMVLSATHRYKKKYVTTLLYKPI | not soluble
21 | MGNWITSTFLRFDLFQRHQPNRFLEYTRVQHSNQSPAYSVRTAAEIVAHQRMKPNHSNDSDTDFSSDDEGCPKMTPHEEQQMFEREQHIAFSGRCHIGDPESCTQLRNEINSRCGPRPSTSNNMEFILNRDLQKRGTSISNPRTVARVLNSHLPNQKRRVDRVATKSFCTQYIQNGTKIVVASQDEKIRFYQRNPDKSKYRSKYMKSDELRVDQCGWSILDTAISLNGDLIAYGTWKDAVFVGKLDFTERQNITWFPIDLNGEPGRDHCAVFCVKFSDSSEQIVCGTSQYSIHVFDVEQRRRIRTIVNAHEDDVNSVCFADLGSNLIYSAGDDGLVKVWDKRAWSDGDVEPVGVFAGHRDGVTHVDSRQDERYLLSNSKDQTIKVWDLRKFSNMSGVEATRACVQSQHWDYRWQPAPPGLCQPVAGDTSVMTLRGHSVLHTLVRANFSPESTGRRYIYTGCARGEVVVYDIMSGTVSRRLKGHTAVVRECDWHPTENEIVSSAWDGVTTVWTWDERQEGVIAPYDHPNISQFGDEDSCDELFQPVKKQCRRQRKTMSSRGHPCSSSSISQN | not soluble

Reference: the DeepSol protein solubility set
